Laboratory results as given in the RNAGym collection of RNA variant scans (doi:10.7554/elife.80360).

B1: CPEB3 Ribozyme (parent)
chain: GGGGGCCACAGCAGAAGCGUUCACGUCGCGGCCCCUGUCAGAUUCUGGUGAAUCUGCGAAUUCUGCUGU

Variants of: B1
Experiment: self-cleavage, relative activity (ratio to wild type); higher = more cleavage; co-transcriptional

Variant	self-cleavage
A23G C33U	0.939
A23G C34A	0.627
A23G C34U	0.932
A23G C35A	0.215
A23G C35G	0.336
A23G C39A	0.785
A23G C39G	0.888
A23G C45G	0.971
A23G C45U	0.991
A23G C54A	0.712
A23G C54G	0.919
A23G C54U	0.964
A23G C57G	0.332
A23G C57U	0.418
A23G C63A	0.681
A23G C63G	0.521
A23G C63U	0.95
A23G C66A	0.597
A23G C66G	0.594
A23G C66U	0.964
A23G G25A	0.156
A23G G25U	0.177
A23G G28U	0.137
A23G G30A	0.79

Variant	self-cleavage
A23G G30C	0.432
A23G G30U	0.229
A23G G31C	0.237
A23G G37A	0.254
A23G G37C	0.214
A23G G37U	0.22
A23G G41A	0.676
A23G G41C	0.581
A23G G41U	0.798
A23G G47A	0.996
A23G G47C	0.944
A23G G47U	0.991
A23G G48C	0.975
A23G G48U	0.972
A23G G50C	1.01
A23G G56C	0.751
A23G G56U	0.914
A23G G58C	0.97
A23G G65A	0.752
A23G G65C	0.537
A23G G65U	0.554
A23G G68A	0.97
A23G G68C	0.971
A23G G68U	1

Variant	self-cleavage
A23G U26A	0.773
A23G U36A	0.241
A23G U36C	0.891
A23G U36G	0.227
A23G U38A	0.897
A23G U38C	0.946
A23G U38G	0.245
A23G U43A	0.877
A23G U43C	0.937
A23G U43G	0.721
A23G U44A	0.923
A23G U44C	0.904
A23G U44G	1.02
A23G U46C	0.906
A23G U49A	0.957
A23G U49C	0.966
A23G U49G	1.03
A23G U53A	0.916
A23G U53C	0.8
A23G U55A	0.879
A23G U55C	0.789
A23G U55G	0.752
A23G U61C	0.614
A23G U62A	0.948

Variant	self-cleavage
A23G U62C	0.667
A23G U62G	0.75
A23G U64A	0.753
A23G U67A	1.03
A23G U67C	0.925
A23G U67G	0.992
A23G U69A	0.974
A23G U69C	1.06
A23G U69G	1.04
A23U	1
A23U A40C	0.678
A23U A40G	0.951
A23U A40U	0.924
A23U A51C	0.995
A23U A51U	0.995
A23U A52C	1.04
A23U A52G	0.642
A23U A52U	0.996
A23U A59G	0.972
A23U A60C	0.385
A23U A60G	0.642
A23U A60U	0.66
A23U C24A	0.888
A23U C27A	0.734

Variant	self-cleavage
A23U C27G	0.164
A23U C27U	0.29
A23U C29A	0.8
A23U C29G	0.569
A23U C29U	0.437
A23U C32G	0.71
A23U C32U	1.01
A23U C33A	0.876
A23U C33G	0.773
A23U C34A	0.956
A23U C34G	0.819
A23U C35G	0.658
A23U C35U	0.974
A23U C39A	0.87
A23U C39G	1.02
A23U C39U	0.921
A23U C45U	0.975
A23U C54A	0.901
A23U C54G	0.943
A23U C54U	1.02
A23U C57A	0.288
A23U C57U	0.28
A23U C63A	0.886
A23U C63G	0.858

Variant	self-cleavage
A23U C63U	1.01
A23U C66G	0.848
A23U C66U	0.964
A23U G25A	0.214
A23U G25C	0.185
A23U G25U	0.144
A23U G28C	0.217
A23U G28U	0.148
A23U G30A	0.96
A23U G30C	0.786
A23U G30U	0.547
A23U G31C	0.215
A23U G31U	0.842
A23U G41A	0.821
A23U G41C	0.912
A23U G41U	0.868
A23U G47A	1.02
A23U G47U	0.983
A23U G48A	0.984
A23U G48U	1.01
A23U G50A	1.01
A23U G50C	0.978
A23U G50U	0.958
A23U G56A	1.01

Variant	self-cleavage
A23U G56C	0.936
A23U G56U	0.955
A23U G65A	0.885
A23U G65C	0.698
A23U G68A	0.989
A23U G68C	1.01
A23U G68U	1.03
A23U U26A	0.914
A23U U26C	1.04
A23U U26G	0.92
A23U U36A	0.222
A23U U36C	0.996
A23U U36G	0.35
A23U U43A	0.954
A23U U43C	0.931
A23U U44A	0.963
A23U U44C	0.869
A23U U44G	0.882
A23U U46A	0.955
A23U U46C	0.964
A23U U46G	1
A23U U49A	1.03
A23U U49C	0.981
A23U U49G	0.936

Variant	self-cleavage
A23U U53A	0.903
A23U U53C	0.928
A23U U53G	0.959
A23U U55C	0.953
A23U U61A	0.918
A23U U61G	0.881
A23U U62A	0.635
A23U U64A	0.943
A23U U64G	0.917
A23U U67A	0.975
A23U U67C	1
A23U U67G	0.979
A23U U69A	1.03
A23U U69C	1.07
C24A	0.77
C24A A40C	0.31
C24A A40G	0.591
C24A A42G	0.53
C24A A51C	0.68
C24A A51G	0.754
C24A A52G	0.772
C24A A59G	0.731
C24A A59U	0.267
C24A A60C	0.283

Variant	self-cleavage
C24A A60G	0.35
C24A A60U	0.252
C24A C27A	0.16
C24A C27G	0.105
C24A C29A	0.27
C24A C29G	0.166
C24A C29U	0.158
C24A C32A	0.31
C24A C32U	0.729
C24A C33A	0.38
C24A C33G	0.33
C24A C33U	0.761
C24A C34A	0.262
C24A C34G	0.227
C24A C35G	0.173
C24A C39A	0.349
C24A C39G	0.682
C24A C39U	0.493
C24A C45A	0.712
C24A C45G	0.677
C24A C45U	0.751
C24A C54U	0.854
C24A C57G	0.219
C24A C57U	0.248

Variant	self-cleavage
C24A C63A	0.357
C24A C63U	0.699
C24A C66A	0.397
C24A C66G	0.493
C24A C66U	0.651
C24A G25A	0.13
C24A G25C	0.122
C24A G25U	0.17
C24A G28A	0.187
C24A G28C	0.129
C24A G28U	0.127
C24A G30A	0.217
C24A G30U	0.159
C24A G31C	0.132
C24A G31U	0.257
C24A G37A	0.229
C24A G37C	0.264
C24A G41A	0.391
C24A G41C	0.299
C24A G41U	0.456
C24A G47A	0.771
C24A G48A	0.758
C24A G48C	0.786
C24A G48U	0.737

Variant	self-cleavage
C24A G50A	0.719
C24A G50C	0.665
C24A G56A	0.52
C24A G56C	0.31
C24A G56U	0.576
C24A G58A	0.4
C24A G58U	0.773
C24A G68A	0.87
C24A G68U	0.834
C24A U26A	0.257
C24A U26G	0.283
C24A U36A	0.173
C24A U36G	0.205
C24A U38A	0.393
C24A U38C	0.517
C24A U38G	0.196
C24A U43A	0.537
C24A U43G	0.427
C24A U44A	0.705
C24A U44C	0.628
C24A U44G	0.615
C24A U46A	0.793
C24A U46C	0.754
C24A U46G	0.816

Variant	self-cleavage
C24A U49A	0.815
C24A U53A	0.537
C24A U53C	0.603
C24A U53G	0.506
C24A U55G	0.289
C24A U61C	0.374
C24A U62A	0.364
C24A U62C	0.402
C24A U64A	0.492
C24A U67A	0.751
C24A U67G	0.693
C24A U69A	0.825
C24A U69G	0.866
C24G	0.499
C24G A40C	0.198
C24G A40G	0.363
C24G A42G	0.404
C24G A42U	0.418
C24G A51C	0.323
C24G A51G	0.515
C24G A52G	0.527
C24G A59C	0.141
C24G A59G	0.518
C24G A59U	0.225

Variant	self-cleavage
C24G A60C	0.205
C24G A60U	0.226
C24G C27A	0.201
C24G C27G	0.192
C24G C27U	0.149
C24G C29A	0.184
C24G C32G	0.239
C24G C32U	0.435
C24G C33U	0.38
C24G C34A	0.271
C24G C34G	0.184
C24G C34U	0.57
C24G C35G	0.116
C24G C35U	0.261
C24G C39U	0.217
C24G C45A	0.485
C24G C45G	0.436
C24G C45U	0.464
C24G C54A	0.267
C24G C54G	0.351
C24G C57A	0.172
C24G C57G	0.13
C24G C57U	0.241
C24G C63A	0.237

Variant	self-cleavage
C24G C63G	0.199
C24G C63U	0.339
C24G C66A	0.24
C24G C66G	0.28
C24G G25A	0.22
C24G G25C	0.152
C24G G28A	0.14
C24G G30A	0.308
C24G G30C	0.128
C24G G30U	0.173
C24G G31A	0.185
C24G G31C	0.134
C24G G37A	0.131
C24G G37C	0.219
C24G G41C	0.18
C24G G47A	0.491
C24G G47U	0.508
C24G G48U	0.528
C24G G50A	0.392
C24G G50C	0.347
C24G G50U	0.441
C24G G56A	0.22
